Experimental data: patent publication US20190381169A1, “PHARMACEUTICAL COMBINATIONS FOR IMMUNOTHERAPY” (Technische Universitat Dresden, priority 2014, published 2019)
“Also recorded” adds a separate entry of the source.

Key:
[1] = biological target: T1, p75^NTR (Mus musculus, UniProt Q9Z0W1); experiment: OVA-mediated allergic asthma induced by intratracheal OVA-loaded PDCs; assay type: in vivo
T1 construct: endogenous in cells; host or cells: murine plasmacytoid dendritic cells differentiated in vitro from bone marrow with Flt3-L (p75NTR+/+ wildtype; p75NTR-/- as control)
T1 sequence (Q9Z0W1 32-427): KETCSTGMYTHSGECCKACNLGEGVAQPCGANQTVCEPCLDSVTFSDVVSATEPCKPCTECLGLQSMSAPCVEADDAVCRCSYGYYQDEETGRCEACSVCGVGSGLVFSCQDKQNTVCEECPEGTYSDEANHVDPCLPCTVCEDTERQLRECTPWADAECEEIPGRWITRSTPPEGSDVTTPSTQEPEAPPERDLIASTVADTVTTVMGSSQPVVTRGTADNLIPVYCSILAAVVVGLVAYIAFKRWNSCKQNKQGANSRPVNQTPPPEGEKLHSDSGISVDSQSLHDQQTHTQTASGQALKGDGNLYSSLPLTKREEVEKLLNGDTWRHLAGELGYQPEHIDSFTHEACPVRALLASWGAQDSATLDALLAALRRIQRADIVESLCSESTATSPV
From the text: Heterozygous p75^NTR knockout mice (p75^NTR+/−) were purchased from The Jackson Laboratory (Bar Harbor, Me., USA) and bred under pathogen-free conditions in the animal facility of the TU Dresden. Male and female p75^NTR+/+ and p75^NTR−/− mice were used at 10-12 weeks of age for experiments.
(§1) Murine PDC were generated in vitro as follows: Bone marrow cells were isolated by flushing femur and tibia of mice. Erythrocytes were lysed using ACK buffer. Remaining cells were washed and cultured at a density of 2×10^6 cells per ml in RPMI 1640 medium supplemented with 10% FCS, 1 mM sodium pyruvat, 2 mM L-glutamine, 100 IU per ml penicillin, 100 μg/ml streptomycin, 10 mM HEPES buffer and 0.1 mM β-mercaptoethanol. To differentiate bone marrow cells into PDCs, 100 ng/ml Flt3-L (fms-like tyrosine kinase 3-ligand) was added to the cells. After 8 days of culture PDCs were enriched by removing the CD11b^+ fraction using CD11b Microbeads (Miltenyi Biotec) according to manufacturer instructions. Dead cells were excluded using Dead cell removal Kit (Miltenyi Biotec). Purity of PDCs was evaluated by flow cytometry (CD11b^−CD11c^+B220^+Siglec-H^+).
To induce allergic asthma, in vitro generated PDCs were incubated with 100 μg/ml ovalbumin (OVA; grade V; Sigma-Aldrich) for 24 h. To sensitize mice, 1×10^6 OVA-loaded PDCs were injected intratracheally to the lungs of anesthetized mice using 24GA i.v. cannula (BD Neoflon™). Control animals received either the same amount of PDCs without OVA or PBS. After 10 days, mice were exposed to 1% w/v OVA-aerosol for 30 min on 3 consecutive days in order to induce allergic reaction. 24 h after last provocation, animals were sacrificed and the immune reaction was examined based on the bronchoalveolar lavage fluid (BALF) cell composition (eosinophils, lymphocytes, macrophages) and pro-inflammatory cytokines spectrum, lung histology and blood serum OVA-specific IgE levels.
BALF cells were quantified by flow cytometry. Cells were preincubated with FcR blocking reagent to avoid a non-specific binding. The following antibodies were used for staining: CD3-V500, CD4-V450, CD8-PE Cy7, CD11c-APC Cy7, B220-PE, F4/80-PerCP, SiglecF-AF647, Ly6G-FITC. Among lymphocytes (FSC^low/SSC^low) the CD4^+ T helper cells were designated as CD3^posCD4^pos; the CD8^+ T helper cells as CD3^posCD8^pos; B-cells as CD3^negB220^pos; among granulocytes (FSC^low/SSC^high, Ly6G^pos) eosinophils were assigned as SiglecF^posCD11c^neg and neutrophils as SiglecF^neg. Macrophages were assigned as FSC^high highly autofluorescent CD11c^posF4/80^pos cells. Additionally, the cytospins of collected cells were prepared and stained according to Pappenheim's method.
BALF supernatant was used for quantification of IL-4, IL-5 and IL-13 by ELISA (eBioscience) according to manufacturer instruction.
Lungs were perfused with PBS and fixed in 4% v/v formaldehyde. 4 μm sections of paraffin-embedded lungs were stained with PAS staining for quantification of inflammation and GobleT-cell hyperplasia.
NGF is present in the lung and increased during inflammatory processes such as allergic asthma. To investigate the impact of NGF on PDCs during allergen-mediated immune response, p75^NTR+/+ PDCs were incubated with ovalbumin (OVA) in the presence or absence of NGF (100 ng/ml) prior intratracheal instillation to p75^NTR+/+ mice.
To substantiate the p75^NTR dependent impact of NGF on PDCs during allergen-mediated immune response, p75^NTR+/+ PDCs were incubated with ovalbumin (OVA) and NGF (100 ng/ml) in the presence or absence of the p75^NTR-specific inhibitory peptide PEP5 prior intratracheal instillation to p75^NTR+/+ mice.

[2] = biological target: T1, p75^NTR; experiment: Cytokine secretion and TLR9 expression of CpG stimulated murine PDCs; assay type: cell-based
Experimental: as §1
Murine PDC express the low affinity neurotrophin receptor p75^NTR but not the high affinity neurotrophin receptors (FIGS. 3A, 3B). […] Furthermore, only p75^NTR expressing PDC (p75^NTR+/+) increased the CPG-ODNs Class B induced secretion of the Th2 response inducing cytokines IL-6 and TNFα in the presence of NGF (FIG. 3D).

[3] = p75^NTR+/+ PDCs incubated with OVA in presence of NGF (100 ng/ml) vs OVA alone, then intratracheal instillation to p75^NTR+/+ mice

In the case of “NGF: Nerve growth factor, best characterized neurotrophin; natural p75^NTR agonist (R&D Systems)”, the “number of macrophages in BALF” value ([1]; OVA up-take by PDCs in presence of NGF vs OVA alone) is reported as “decreased”, the “production of Th2 cytokines (IL-4, IL-5 and IL-13) in the lung” value ([1]; OVA-loaded PDCs treated with NGF vs pulsed with OVA in absence of NGF) is reported as “increased production” and the “inflammatory phenotype in the lung (histology: perivascular inflammation, mucus production)” value ([1]; PDCs treated with NGF during OVA-uptake) is reported as “potentiated the inflammatory phenotype in the lung”. For the same substance, the “numbers of eosinophils in BALF” value [1, 3] was “significantly augmented”, the “numbers of lymphocytes in BALF” value [1, 3] was “significantly augmented” and the “induction of airway inflammation by p75^NTR−/− PDCs” value ([1]; p75^NTR−/− PDCs loaded with OVA in presence or absence of NGF, data not shown) was “not able to induce airway inflammation”. The IFNα secretion ([2]; CPG-ODNs Class A (CpG A) stimulated p75^NTR+/+ PDCs, increasing NGF levels) was “decreasing levels; also recorded: reduced”, the “expression of TLR9” value ([2]; CpG A stimulated p75^NTR+/+ PDCs, NGF added) was “reduced expression; also recorded: negatively influenced” and the “CPG-ODNs Class B induced secretion of IL-6 and TNFα” value ([2]; p75^NTR+/+ PDC in presence of NGF) was “increased”. For the same substance, the “CpG-induced increase in TLR9 expression level” value ([2]; p75^NTR+/+ PDCs, CpG A or CpG B, presence of NGF) was “significantly decreased” and the “TLR9 expression of p75^NTR−/− PDCs” value ([2]; p75^NTR−/− PDCs, CpG A or CpG B stimulation, NGF added) was “does not display a NGF induced alteration of TLR9 expression; also recorded: showed now difference in TLR9 expression”.
